# Where a chain is given by its changes, count along the chain named.
# T1: FcγRIIa R type extracellular domain with C-terminal His tag (human, UniProt P12318 34-217)
# T1 construct: extracellular domain; also called FcgRIIa R; FcgRIIaR; not shown: His tag at the C terminus
# T1 sequence (looked up): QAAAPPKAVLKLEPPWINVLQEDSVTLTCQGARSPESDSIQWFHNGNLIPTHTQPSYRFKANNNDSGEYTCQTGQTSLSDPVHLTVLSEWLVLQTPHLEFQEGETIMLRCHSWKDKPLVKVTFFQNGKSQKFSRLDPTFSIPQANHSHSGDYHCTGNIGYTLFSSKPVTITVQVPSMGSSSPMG
# T2: FcγRIIa H type extracellular domain with C-terminal His tag (human, UniProt P12318 34-217)
# T2 construct: extracellular domain; also called FcgRIIa H; FcgRIIaH; not shown: His tag at the C terminus
# T2 sequence (looked up): T1 sequence (looked up) with R134H
# T3: FcγRIIb extracellular domain with C-terminal His tag (human, UniProt P31994 43-217)
# T3 construct: extracellular domain; also called FcgRIIb; 2b; not shown: His tag at the C terminus
# T3 sequence (looked up): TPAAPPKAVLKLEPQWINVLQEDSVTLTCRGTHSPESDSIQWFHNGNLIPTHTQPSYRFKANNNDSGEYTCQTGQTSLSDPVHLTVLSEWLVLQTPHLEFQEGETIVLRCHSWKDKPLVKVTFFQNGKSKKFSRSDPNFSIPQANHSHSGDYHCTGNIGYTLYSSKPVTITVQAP
# B1: H240-FA024/H240-FB084/L73-k0 (antibody, human IgG1, kappa)
# heavy 1: QDQLVQSGAEVKKPGASVKVSCKASGFNIKDTYIQWVRQAPGQGLEWMGRIDPLRKQTKYREKFEGRVTITADTSTNTAYMELSSLRSEDTAVYYCVRSGREFDYWGQGTLVTVSSASTKGPSVFPLAPSSKSTSGGTAALGCLVKDYFPEPVTVSWNSGALTSGVHTFPAVLQSSGLYSLSSVVTVPSSSLGTKTYTCNVNHKPSNTKVDKKVEPKSCDKTHTCPPCPAPEYYWGPSVFLFPPKPKDTLMISRTPEVTCVVVDVSDEEPKVKFNWYVDGVEVHNAKTKPREEQYNATYRVVSVLTVLHQDWLNGKEYKCKVSNKALPAPIEKTISKAKGQPREPQVYTLPPSRKEKTKNQVSLTCLVKGFYPSDIAVEWESNGQPENNYKTTPPVLDSDGSFFLYSKLTVDKSRWQQGNVFSCSVMHEALHNRYTQKSLSLSP
# heavy 2: QDQLVQSGAEVKKPGASVKVSCKASGFNIKDTYIQWVRQAPGQGLEWMGRIDPLRKQTKYREKFEGRVTITADTSTNTAYMELSSLRSEDTAVYYCVRSGREFDYWGQGTLVTVSSASTKGPSVFPLAPSSKSTSESTAALGCLVEDYFPEPVTVSWNSGALTSGVHTFPAVLQSSGLYSLSSVVTVPSSNFGTQTYTCNVDHKPSNTKVDKTVEPKSCDKTHTCPPCPAPELLGGPSVFLFPPKPKDTLMISRTPEVTCVVVDVSHEEPEVQFNWYVDGVEVHNAETKPREEQYNSTYRVVSVLTVLHQDWLNGKEYKCKVSNDALPMPIEETISKAKGQPREPQVYTLPPSREEMTKNQVSLTCLVKGFYPSDIAVEWESEGQPENNYKTTPPVLDSDGSFFLYSKLTVDKSRWQQGNVFSCSVMHEALHNHYTQESLSLSP
# light: DIQMTQSPSSLSASVGDRVTITCRASQDIHKYIAWYQQKPGQAPRLLIQYTSTLQPGVPSRFSGSGSGTDYTFTISSLQPEDIATYYCLQYEQLRTFGGGTKVEIKRTVAAPSVFIFPPSDEQLKSGTASVVCLLNNFYPREAKVQWKVDNALQSGNSQESVTEQDSKDSTYSLSSTLTLSKADYEKHKVYACEVTHQGLSSPVTKSFNRGEC
# notes: Heterodimerized anti-EREG IgG1 antibody; A chain altered from H240-AK072, B chain altered from H240-BH076
# B2: H240-FA030/H240-FB083/L73-k0 (antibody, human IgG1, kappa)
# heavy 1: B1 heavy 1 with K357M
# heavy 2: B1 heavy 2 with E383N
# light: B1 light
# notes: as for B1
# B3: H240-FA024/H240-FB065/L73-k0 (antibody, human IgG1, kappa)
# heavy 1: B1 heavy 1
# heavy 2: B1 heavy 2 with E146K, E383N
# light: B1 light
# notes: as for B1
# B4: H240-FA030/H240-FB084/L73-k0 (antibody, human IgG1, kappa)
# heavy 1: B1 heavy 1 with K357M
# heavy 2: B1 heavy 2
# light: B1 light
# notes: as for B1
# B5: H240-FA030/H240-FB065/L73-k0 (antibody, human IgG1, kappa)
# heavy 1: B1 heavy 1 with K357M
# heavy 2: B1 heavy 2 with E146K, E383N
# light: B1 light
# notes: as for B1
# B6: H240-FA030/H240-FB064/L73-k0 (antibody, human IgG1, kappa)
# heavy 1: B1 heavy 1 with K357M
# heavy 2: B1 heavy 2 with E146K, E287K, E383N
# light: B1 light
# notes: as for B1
# B7: H240-FA024/H240-FB082/L73-k0 (antibody, human IgG1, kappa)
# heavy 1: B1 heavy 1
# heavy 2: B1 heavy 2 with E136G, S137E, N191S, F192L, T198I, D202N, T213K
# light: B1 light
# notes: as for B1
# B8: H240-FA030/H240-FB082/L73-k0 (antibody, human IgG1, kappa)
# heavy 1: B1 heavy 1 with K357M
# heavy 2: B1 heavy 2 with E136G, S137E, N191S, F192L, T198I, D202N, T213K
# light: B1 light
# notes: as for B1
# B9: H240-FA009/H240-FB001/L73-k0 (antibody, human IgG1, kappa)
# heavy 1: B1 heavy 1 with T198I, K271E, K357M
# heavy 2: B1 heavy 2 with E136G, S137G, E146K, N191S, F192L, T198I, D202N, T213K, E287K, E383N
# light: B1 light
# notes: as for B1
# B10: H240-FA009/H240-FB016/L73-k0 (antibody, human IgG1, kappa)
# heavy 1: B1 heavy 1 with T198I, K271E, K357M
# heavy 2: B1 heavy 2 with E136G, S137G, E146K, N191S, F192L, T198I, T213K, E287K, E383N
# light: B1 light
# notes: as for B1
# B11: H240-FA009/H240-FB020/L73-k0 (antibody, human IgG1, kappa)
# heavy 1: B1 heavy 1 with T198I, K271E, K357M
# heavy 2: B1 heavy 2 with E136G, S137G, N191S, F192L, T198I, D202N, T213K, E287K, E383N
# light: B1 light
# notes: as for B1
# B12: H240-FA009/H240-FB017/L73-k0 (antibody, human IgG1, kappa)
# heavy 1: B1 heavy 1 with T198I, K271E, K357M
# heavy 2: B1 heavy 2 with S137G, E146K, N191S, F192L, T198I, T213K, E287K, E383N
# light: B1 light
# notes: as for B1
# B13: H240-FA009/H240-FB015/L73-k0 (antibody, human IgG1, kappa)
# heavy 1: B1 heavy 1 with T198I, K271E, K357M
# heavy 2: B1 heavy 2 with S137G, E146K, N191S, F192L, T198I, D202N, T213K, E287K, E383N
# light: B1 light
# notes: as for B1
# Target: T4, FcγRIa extracellular domain with C-terminal His tag (human, UniProt P12314 16-292)
# T4 construct: extracellular domain; also called FcgRI; FcgRIa; not shown: His tag at the C terminus
# Test: SPR (Biacore), antibody captured on chip, soluble FcgR as analyte; experiment 1
# Method: (§1) Antibodies of interest were analyzed for the interaction to FcgR according to the method described in Reference Example 8.
# (§2) Analysis of interaction between obj ective antibody and the FcγR was carried out using Biacore T100 (GE Healthcare), Biacore T200, Biacore A100, and Biacore 4000. HBS-EP+ (GE Healthcare) was used as the running buffer, and the measurement temperature was set to 25° C. Chips produced by immobilizing the antigen peptide by the amine coupling method to a Series S sensor Chip CM5 (GE Healthcare), chips produced by allowing preliminarily biotinylated antigen peptides to interact with and immobilize onto a Series S Sensor Chip SA (certified) (GE Healthcare), chips produced by immobilizing Protein L (ACTIGEN, BioVision) to Series S Sencor Chip CM5 (GE Healthcare), or chips produced by immobilizing Protein A/G (Thermo Scientific) to Series S Sencor Chip CM5 (GE Healthcare) were used. Antibodies of interest were captured onto these chips, and allowed to interact to each FcγR diluted with running buffer. To regenerate and repeatedly use the chip, the antibodies captured onto the chip were washed off by reacting 10 mM glycine-HCl, pH 1.5.
# T4 sequence (P12314 16-292): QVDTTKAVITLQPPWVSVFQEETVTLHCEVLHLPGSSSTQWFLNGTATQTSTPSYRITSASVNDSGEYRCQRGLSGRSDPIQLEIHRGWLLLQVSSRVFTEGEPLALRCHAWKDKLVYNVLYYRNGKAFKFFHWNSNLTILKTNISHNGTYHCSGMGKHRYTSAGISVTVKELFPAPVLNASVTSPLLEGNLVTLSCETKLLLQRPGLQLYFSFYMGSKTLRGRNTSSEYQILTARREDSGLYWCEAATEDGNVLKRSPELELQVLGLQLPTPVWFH
row,Kd [nM],Binder
1,0.095,B1
2,0.081,B2
3,0.15,B3
4,0.12,B4
5,0.1,B5
6,0.057,B6
7,0.13,B7
8,0.092,B8

# Target: T1, FcγRIIa R type extracellular domain …
# Test: as above
# Method: as §1, §2
row,Kd [nM],Binder
1,250,B1
2,280,B2
3,300,B3
4,270,B4
5,340,B5
6,290,B6
7,240,B7
8,300,B8

# Target: T2, FcγRIIa H type extracellular domain …
# Test: as above
# Method: as §1, §2
row,Kd [nM],Binder
1,79,B1
2,82,B2
3,95,B3
4,88,B4
5,99,B5
6,96,B6
7,80,B7
8,88,B8

# Target: T3, FcγRIIb extracellular domain with …
# Test: as above
# Method: as §1, §2
row,Kd [nM],Binder
1,1500,B1
2,1500,B2
3,1700,B3
4,2500,B4
5,2400,B5
6,1800,B6
7,1500,B7
8,1900,B8

# Target: T5, FcγRIIIa F type extracellular domain with C-terminal His tag (human, UniProt P08637 17-208)
# T5 construct: extracellular domain; also called FcgRIIIa F; FcgRIIIaF; not shown: His tag at the C terminus
# Test: as above
# Method: as §1, §2
# T5 sequence (P08637 17-208): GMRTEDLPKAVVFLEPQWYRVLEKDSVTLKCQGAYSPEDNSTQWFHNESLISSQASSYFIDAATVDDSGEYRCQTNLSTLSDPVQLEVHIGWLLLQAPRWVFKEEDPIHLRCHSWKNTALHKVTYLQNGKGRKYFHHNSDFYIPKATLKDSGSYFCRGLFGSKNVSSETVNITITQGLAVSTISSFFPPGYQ
row,Kd [nM],Binder
1,4.6,B1
2,3.9,B2
3,5,B3
4,4.2,B4
5,4.6,B5
6,5.3,B6
7,4.6,B7
8,4.3,B8

# Target: T6, FcγRIIIa V type extracellular domain with C-terminal His tag (human, UniProt P08637 17-208)
# T6 construct: extracellular domain; also called FcgRIIIa V; FcgRIIIaV; not shown: His tag at the C terminus
# Test: as above
# Method: as §1, §2
# T6 sequence (P08637 17-208 F176V): as the sequence (P08637 17-208) above, with F160V counted along it
row,Kd [nM],Binder
1,1.2,B1
2,1.2,B2
3,1.4,B3
4,1.3,B4
5,1.1,B5
6,1.5,B6
7,1.3,B7
8,1.3,B8

# Target: T4, FcγRIa extracellular domain with …
# Test: SPR (Biacore), antibody captured on chip, soluble FcgR as analyte; experiment 2
# Method: as §1, §2
row,Kd [nM],Binder
1,0.17,B9
2,0.13,B10
3,0.12,B11
4,0.11,B12
5,0.093,B13

# Target: T1, FcγRIIa R type extracellular domain …
# Test: as above
# Method: as §1, §2
row,Kd [nM],Binder
1,250,B9
2,250,B10
3,250,B11
4,230,B12
5,330,B13

# Target: T2, FcγRIIa H type extracellular domain …
# Test: as above
# Method: as §1, §2
row,Kd [nM],Binder
1,69,B9
2,70,B10
3,64,B11
4,61,B12
5,84,B13

# Target: T3, FcγRIIb extracellular domain with …
# Test: as above
# Method: as §1, §2
row,Kd [nM],Binder
1,1300,B9
2,1400,B10
3,1400,B11
4,1400,B12
5,1800,B13

# Target: T5, FcγRIIIa F type extracellular domain …
# Test: as above
# Method: as §1, §2
row,Kd [nM],Binder
1,4.3,B9
2,4.4,B10
3,3.9,B11
4,3,B12
5,4.2,B13

# Target: T6, FcγRIIIa V type extracellular domain …
# Test: as above
# Method: as §1, §2
row,Kd [nM],Binder
1,1.1,B9
2,1,B10
3,1.1,B11
4,0.84,B12
5,1.3,B13
